Reference: paper PMC12186880

Molecular target: adenine base editing engineered ribonucleoprotein (BE-eRNP): bipartite NLS-TadA(8.20-m)-linker-nCas9(D10A, C80A)-bipartite NLS protein complexed with sgRNA (Escherichia coli | Streptococcus pyogenes)
Assay: native gel or EMSA

stoichiometry N: 2
Substance: adenine base editing engineered ribonucleoprotein (BE-eRNP): bipartite NLS-TadA(8.20-m)-linker-nCas9(D10A, C80A)-bipartite NLS protein complexed with sgRNA (enzyme)
